Patent publication US20140248666A1 (Amgen, published 2014)

T1: human sclerostin, mature form (signal peptide removed) (human, UniProt Q9BQB4 24-213)
T1 construct: 190 amino acid glycoprotein with four disulfide bonds (C1-C5, C2-C6, C3-C7, C4-C8); also called SOST; recombinant human sclerostin
T1 sequence: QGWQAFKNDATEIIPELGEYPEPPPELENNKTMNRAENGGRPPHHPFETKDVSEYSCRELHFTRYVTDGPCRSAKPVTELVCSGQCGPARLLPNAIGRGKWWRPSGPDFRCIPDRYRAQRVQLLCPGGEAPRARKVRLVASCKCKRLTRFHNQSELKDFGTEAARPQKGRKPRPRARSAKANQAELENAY

B1: Antibody 19 (antibody, V domains shown)
VH: EVQLQQSGPELVKPGASVKMSCKASGFTFTDYIMHWVKQKPGQGLEWIGYINPYNDDTEYNEKFKGKATLTSDKSSSTAYMDLSSLTSEGSAVYYCARSIYYYDAPFAYWGQGTLVTVSS
VL: DIQMTQTTSSLSASLGDRVNISCRASQDISSYLNWYQQKPDGTVKLLIYSTSRLNSGVPSRFSGSGSGTDYSLTISNLAQEDIATYFCQQDIKHPTFGGGTKLELKR
notes: the signal peptide is not part of the antibody as tested; Parent of humanized Ab-20 and Ab-23; also called Ab-19
B2: Antibody 5 (antibody, human IgG2, kappa, V domains shown)
VH: EVQLVQSGAEVKKPGASVKVSCKASGYTFTDYNMHWVRQAPGQGLEWMGEINPNSGGAGYNQKFKGRVTMTTDTSTSTAYMELRSLRSDDTAVYYCARLGYDDIYDDWYFDVWGQGTTVTVSS
VL: DIQMTQSPSSLSASVGDRVTITCRASQDISNYLNWYQQKPGKAPKLLIYYTSRLLSGVPSRFSGSGSGTDFTLTISSLQPEDFATYYCQQGDTLPYTFGGGTKVEIKR
notes: Humanized Ab-4; Mature LC and HC; also called Ab-5
B3: Antibody 23 (antibody, human IgG2, kappa)
light: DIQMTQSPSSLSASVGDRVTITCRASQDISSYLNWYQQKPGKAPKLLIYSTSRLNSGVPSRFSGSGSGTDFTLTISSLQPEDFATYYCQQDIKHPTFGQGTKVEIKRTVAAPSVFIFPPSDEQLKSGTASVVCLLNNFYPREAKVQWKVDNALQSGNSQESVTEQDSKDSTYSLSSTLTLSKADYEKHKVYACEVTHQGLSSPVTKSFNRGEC
heavy: EVQLVQSGAEVKKPGSSVKVSCKASGFTFTDYIMHWVRQAPGQGLEWMGYINPYNDDTEYNEKFKGRVTITADKSTSTAYMELSSLRSEDTAVYYCARSIYYYDAPFAYWGQGTLVTVSSASTKGPSVFPLAPCSRSTSESTAALGCLVKDYFPEPVTVSWNSGALTSGVHTFPAVLQSSGLYSLSSVVTVPSSNFGTQTYTCNVDHKPSNTKVDKTVERKCCVECPPCPAPPVAGPSVFLFPPKPKDTLMISRTPEVTCVVVDVSHEDPEVQFNWYVDGVEVHNAKTKPREEQFNSTFRVVSVLTVVHQDWLNGKEYKCKVSNKGLPAPIEKTISKTKGQPREPQVYTLPPSREEMTKNQVSLTCLVKGFYPSDIAVEWESNGQPENNYKTTPPMLDSDGSFFLYSKLTVDKSRWQQGNVFSCSVMHEALHNHYTQKSLSLSPGK
notes: Humanized Ab-19, IgG2 version; Mature LC and HC; also called Ab-23
B4: Antibody 14 (antibody, human IgG2, kappa, V domains shown)
VH: EVQLVQSGAEVKKPGASVKVSCKASGYTFTDYYMNWVRQAPGQRLEWMGDINPYNDDTTYNHKFKGRVTITRDTSASTAYMELSSLRSEDTAVYYCARETAVITTNAMDYWGQGTTVTVSS
VL: DIQLTQSPSFLSASVGDRVTITCRASSSVTSSYLNWYQQKPGKAPKLLIYSTSNLASGVPSRFSGSGSGTEFTLTISSLQPEDFATYYCQQYDFFPSTFGGGTKVEIKR
notes: Humanized Ab-13; Mature LC and HC; also called Ab-14; Ab14
B5: Antibody 4 (antibody, mouse IgG1, kappa, V domains shown)
VH: EVQLQQSGPELMKPGASVKMSCKASGYTFTDYNMHWVKQNQGKTLEWIGEINPNSGGAGYNQKFKGKATLTVDKSSTTAYMELRSLTSEDSAVYYCARLGYDDIYDDWYFDVWGAGTTVTVSS
VL: DIQMTQITSSLSASLGDRVSISCRASQDISNYLNWYQQKPDGTFKLLIFYTSRLLSGVPSRFSGSGSGTDYSLTIYNLEQEDFATYFCQQGDTLPYTFGGGTKLEIKR
notes: Mature LC and HC; Parent of humanized Ab-5; also called Ab-4
B6: Antibody 13 (antibody, mouse IgG1, kappa, V domains shown)
VH: EVQLQQSGPELVKPGASVKMSCKASGYTFTDYYMNWVKQSHGESLEWIGDINPYNDDTTYNHKFKGKATLTVDKSSNTAYMQLNSLTSEDSAVYYCARETAVITTNAMDYWGQGTSVTVSS
VL: QIVLTQSPAIMSASPGEKVTMTCRASSSVTSSYLNWYQQKPGSSPKLWIYSTSNLASGVPARFSGSGSGTSYSLTISSVEAEDAATYYCQQYDFFPSTFGGGTKLEIKR
notes: Mature LC and HC; Parent of humanized Ab-14; also called Ab-13
B7: Antibody 3 (antibody, mouse IgG1, kappa)
light: EIVLTQSPALMAASPGEKVTITCSVSSTISSNHLHWFQQKSDTSPKPWIYGTSNLASGVPVRFSGSGSGTSYSLTISSMEAEDAATYYCQQWSSYPLTFGAGTKLELRRADAAPTVSIFPPSSEQLTSGGASVVCFLNNFYPKDINVKWKIDGSERQNGVLNSWTDQDSKDSTYSMSSTLTLTKDEYERHNSYTCEATHKTSTSPIVKSFNRNEC
heavy: EVQLQQSGAELVRPGALVKLSCTASDFNIKDFYLHWMRQRPEQGLDWIGRIDPENGDTLYDPKFQDKATLTTDTSSNTAYLQLSGLTSETTAVYYCSREADYFHDGTSYWYFDVWGAGTTITVSSAKTTPPSVYPLAPGSAAQTNSMVTLGCLVKGYFPEPVTVTWNSGSLSSGVHTFPAVLQSDLYTLSSSVTVPSSTWPSETVTCNVAHPASSTKVDKKIVPRDCGCKPCICTVPEVSSVFIFPPKPKDVLTITLTPKVTCVVVDISKDDPEVQFSWFVDDVEVHTAQTQPREEQFNSTFRSVSELPIMHQDWLNGKEFKCRVNSAAFPAPIEKTISKTKGRPKAPQVYTIPPPKEQMAKDKVSLTCMITDFFPEDITVEWQWNGQPAENYKNTQPIMDTDGSYFIYSKLNVQKSNWEAGNTFTCSVLHEGLHNHHTEKSLSHSPGK
notes: Mature LC and HC (signal peptide removed); Parent of humanized Ab-15; also called Ab-3

Target: T1, human sclerostin, mature form (signal …)
Experiment: KinExA solution equilibrium binding, human sclerostin-coated beads
Procedure: The affinity of several anti-sclerostin antibodies to human sclerostin was assessed by a solution equilibrium binding analysis using KinExA® 3000 (Sapidyne Instruments Inc., Boise, Id.). For these measurements, Reacti-Gel 6× beads (Pierce, Rockford, Ill.) were pre-coated with 40 μg/ml human sclerostin in 50 mM Na2CO3, pH 9.6 at 4° C. overnight. The beads were then blocked with 1 mg/ml BSA in 1M Tris-HCl, pH 7.5 at 4° C. for two hours. 10 pM, 30 pM, or 100 pM of the antibody was mixed with various concentrations of human sclerostin, ranging in concentration from 0.1 pM to 1 nM, and equilibrated at room temperature for over 8 hours in PBS with 0.1 mg/ml BSA and 0.005% P20. The mixtures were then passed over the human sclerostin coated beads. The amount of bead-bound anti-sclerostin antibody was quantified using fluorescent Cy5-labeled goat anti-mouse-IgG or fluorescent Cy5-labeled goat anti-human-IgG antibodies (Jackson Immuno Research, West Grove, Pa.) for the mouse or human antibody samples, respectively. The amount of fluorescent signal measured was proportional to the concentration of free anti-sclerostin antibody in each reaction mixture at equilibrium. The dissociation equilibrium constant (KD) was obtained from nonlinear regression of the competition curves using a n-curve one-site homogeneous binding model provided in the KinExA Pro software.

Going from B1 to B2, the Kd rises from 3 pM to 6 pM (2-fold). The first binds more tightly here.

Compared with B3, B4 is 4-fold lower in Kd: 4 pM for the first, 1 pM for the second. The second binds more tightly here.

Compared with B5, B6 is 5-fold lower in Kd: 3 pM for the first, 0.6 pM for the second.

Target: T1, human sclerostin, mature form (signal …)
Experiment: Biacore 3000; antibody captured by anti-human IgG Fc, sclerostin as analyte
Procedure: The assay format was capture of the anti-sclerostin antibody by immobilised anti-human IgG-Fc then titration of the sclerostin over the captured surface. An example of the procedure is given below: BIA (Biamolecular Interaction Analysis) was performed using a BIAcore 3000 (BIAcore AB). Affinipure F(ab′)₂ Fragment goat anti-human IgG, Fc fragment specific (Jackson
ImmunoResearch) was immobilised on a CM5 Sensor Chip via amine coupling chemistry to a capture level of ≈4000 response units (RUs). HBS-EP buffer (10 mM HEPES pH 7.4, 0.15 M NaCl, 3 mM EDTA, 0.005% Surfactant P20, BIAcore AB) containing 1 mg/mL CM-Dextran was used as the running buffer with a flow rate of 10 μl/min. A 10 μl injection of the anti-sclerostin antibody at ˜5 μg/mL was used for capture by the immobilised anti-human IgG-Fc. Antibody capture levels were typically 100-200 RU. Sclerostin was titrated over the captured anti-sclerostin antibody at various concentrations at a flow rate of 30 μL/min. The surface was regenerated by two 10 μL injections of 40 mM HCl, followed by a 5 μL injection of 5 mM NaOH at a flowrate of 10 μL/min.
Background subtraction binding curves were analysed using the BIAevaluation software (version 3.2) following standard procedures. Kinetic parameters were determined from the fitting algorithm.

Compared with B2, B4 is 66-fold lower in Kd: 97.8 pM for the first, 1.48 pM for the second. The second binds more tightly here.

Compared with B2, B4 is 36-fold lower in koff: 0.000174 s⁻¹ for the first, 4.87e-06 s⁻¹ for the second.

First: B2
Second: B4
The kon of the first is 1.9-fold lower: 1.78e+06 M⁻¹ s⁻¹ for the first, 3.3e+06 M⁻¹ s⁻¹ for the second.

Target: T1, human sclerostin, mature form (signal …)
Experiment: Biacore cross-blocking, human sclerostin on CM5 chip; mixed with competitor Ab-3, each 1.3 uM binding sites
Procedure: (§1) Human sclerostin was coupled to a CM5 Biacore chip using standard amine coupling chemistry to generate a sclerostin coated surface. 300 resonance units of sclerostin were coupled to the surface.
(§2) 20 μL of the test mixture was passed over the sclerostin-coated chip at a flow rate of 10 μL/min and the amount of binding recorded. The chip was then treated with two 60 second pulses of 30 mM HCl to remove all of the bound antibody. A solution containing only one of the antibodies of the test mixture (at 1.3 μM in the same buffer as the test mixture on a binding site basis) was then passed over the chip in the same manner as the test mixture and the amount of binding recorded. The chip was again treated to remove all of the bound antibody and finally a solution containing the other antibody from the test mixture alone (at 1.3 μM in the same buffer as the test mixture on a binding site basis) was passed over the chip and the amount of binding recorded.
(§3) The table below show the results from cross-blocking assays on a range of different antibodies. The values in each square of the table represent the amount of binding (in RU) seen when the antibodies (at 1.3 μM on a binding site basis) or buffer indicated in the top row of the table were mixed with the antibodies (at 1.3 uM on a binding site basis) or buffer indicated in the first column of the table.

Going from B1 to B5, the “amount of binding (RU)” value falls from 892 RU to 869 RU.

In the case of B6, the “amount of binding (RU)” value is reported as 432 RU.

Target: T1, human sclerostin, mature form (signal …)
Experiment: Biacore cross-blocking, human sclerostin on CM5 chip; mixed with competitor Ab-4, each 1.3 uM binding sites
Procedure: as §1, §2, §3

First: B1
Second: B7
The “amount of binding (RU)” value of the first is lower: 789 RU for the first, 845 RU for the second.

B6 was tested, and the “amount of binding (RU)” value was 1010 RU.

Target: T1, human sclerostin, mature form (signal …)
Experiment: Biacore cross-blocking, human sclerostin on CM5 chip; mixed with competitor Ab-A, each 1.3 uM binding sites
Procedure: as §1, §2, §3

Going from B1 to B5, the “amount of binding (RU)” value falls from 863 RU to 860 RU.

Going from B7 to B6, the “amount of binding (RU)” value rises from 952 RU to 1110 RU.

Target: T1, human sclerostin, mature form (signal …)
Experiment: Biacore cross-blocking, human sclerostin on CM5 chip; mixed with competitor Ab-13, each 1.3 uM binding sites
Procedure: as §1
(§4) The antibodies to be tested were diluted to a concentration of 200 ug/ml in HBS-EP buffer (being 10 mM HEPES pH 7.4, 150 mM NaCl, 3 mM EDTA, 0.005% (v/v) Surfactant P20) and then mixed in a one to one molar ratio (on a binding site basis) to generate the test mixture. This test mixture thus contained each antibody at a concentration of 100 ug/ml (1.3 um on a binding site basis). Separate solutions containing each of the antibodies in the test mix alone were also prepared. These solutions contained the individual antibodies in HBS-EP buffer at a concentration of 100 ug/ml (1.3 um on a binding site basis).
as §2

B1 and B5 are the same in “amount of binding (RU)” value: 1020 RU for the first, 1020 RU for the second.

For B7, the “amount of binding (RU)” value was 428 RU.

Target: T1, human sclerostin, mature form (signal …)
Experiment: Biacore cross-blocking, human sclerostin on CM5 chip; mixed with competitor Ab-19, each 1.3 uM binding sites
Procedure: as §1, §4, §2

First: B5
Second: B7
The “amount of binding (RU)” value of the first is lower: 822 RU for the first, 896 RU for the second.

With B6 the “amount of binding (RU)” value was 1040 RU.

Target: T1, human sclerostin, mature form (signal …)
Experiment: Biacore cross-blocking on human sclerostin; mixture with competitor Ab-3, mean RU against the sum of each alone
Procedure: as §1, §4, §2

Going from B5 to B6, the “percentage of the theoretical binding” value falls from 85.4% to 58%.

Target: T1, human sclerostin, mature form (signal …)
Experiment: Biacore cross-blocking on human sclerostin; mixture with competitor Ab-19, mean RU against the sum of each alone
Procedure: as §1, §4, §2

Compared with B5, B7 is higher in “percentage of the theoretical binding” value: 60.8% for the first, 94.4% for the second.

B6 was tested, and the “percentage of the theoretical binding” value was 97%.
